Test results reported in paper PMC4186791.

Target: UbxIVa Pro4 (Drosophila melanogaster)
Experiment: two-hybrid; LexA-Ubx variant (pLexA) and B42-partner (pB42) co-transformed into S. cerevisiae EGY48 carrying p8op-LacZ; blue/white colonies on X-gal and liquid β-galactosidase (ONPG) assay after galactose induction at 30°C, reported in Miller units

| percent of binding lost relative to UbxIb Pro4 | Binder |
| --- | --- |
| 85% | Cap-binding protein 1 (natural protein) MSRRRAHDTEDEGYDHRRNKRRRVSENQEIEDRLESLILRVGERSTSSVESNLEGLVSVLEADLGTFRLKILRILSDCAVRMPEKCTVYTTLVGLLNAKNYKFGGEFVDHMVKTFKESLKMCRWDAARYSLRFLADLVNCHVISATSLLQLLDTMIDVSNEDTVPQVRRDWFVFAVLSTLPWVGRDLYEKKESALESLLLRIEVYLNKRSKKHHNALRVWSSDAPHPQEEYLDCLWAQIRKLRQDNWAEKHIPRPYLVFDSILCEALQHNLPTIVPPPHHDNFEYPMPWVVYRMFDYTDCPDGPNLPGAHSIERFLIEEHLHHIIETYHHERKDCAAQLLSFPYKHKIPLEYCIVEVVFAELFHMPTPRYLDICYGSILIELCKLQPATLPQVLAQATEILFMRIDSMNTSCFDRFVNWFSYHLSNFKFTWSWDEWDSCLLLDGEHPRPKFIQEVLQKCLRLSYHQRITEMMPTTYAKLIPLTPVPNYKYANEEAANLPGTTVAHQLVVAIRQKCTPEEVVNILKDIPNSGYSGEEMSDGSFNALKIDVFVQTLLNLGSKSFSHSFAAISKFHSVFRALAETEEAQICILHNIFELWSSHQQMMVVLIDKLLKLQIVDCSAVATWIFSKEMTGEFTKLYLWEILHLTIKKMNKHVIKLNTELSEAKEKLAKADSSSSDSEDDSSHKRKKPITHADKPSEEVVERMEEKLEAANVNQKRLFLIVFQRFIMILSEHLLRSDTDGRDPDTDWYRWTIGRLQQVFLMHHEQVQKYSSTLETLLFTSDLDTHILEVFQQFVALRA |
| 60% | Armadillo (natural protein) MSYMPAQNRTMSHNNQYNPPDLPPMVSAKEQTLMWQQNSYLGDSGIHSGAVTQVPSLSGKEDEEMEGDPLMFDLDTGFPQNFTQDQVDDMNQQLSQTRSQRVRAAMFPETLEEGIEIPSTQFDPQQPTAVQRLSEPSQMLKHAVVNLINYQDDAELATRAIPELIKLLNDEDQVVVSQAAMMVHQLSKKEASRHAIMNSPQMVAALVRAISNSNDLESTKAAVGTLHNLSHHRQGLLAIFKSGGIPALVKLLSSPVESVLFYAITTLHNLLLHQDGSKMAVRLAGGLQKMVTLLQRNNVKFLAIVTDCLQILAYGNQESKLIILASGGPNELVRIMRSYDYEKLLWTTSRVLKVLSVCSSNKPAIVDAGGMQALAMHLGNMSPRLVQNCLWTLRNLSDAATKVEGLEALLQSLVQVLGSTDVNVVTCAAGILSNLTCNNQRNKATVCQVGGVDALVRTIINAGDREEITEPAVCALRHLTSRHVDSELAQNAVRLNYGLSVIVKLLHPPSRWPLIKAVIGLIRNLALCPANHAPLREHGAIHHLVRLLMRAFQDTERQRSSIATTGSQQPSAYADGVRMEEIVEGTVGALHILARESHNRALIRQQSVIPIFVRLLFNEIENIQRVAAGVLCELAADKEGAEIIEQEGATGPLTDLLHSRNEGVATYAAAVLFRMSEDKPQDYKKRLSIELTNSLLREDNNIWANADLGMGPDLQDMLGPEEAYEGLYGQGPPSVHSSHGGRAFHQQGYDTLPIDSMQGLEISSPVGGGGAGGAPGNGGAVGGASGGGGNIGAIPPSGAPTSPYSMDMDVGEIDAGALNFDLDAMPTPPNDNNNLAAWYDTDC |
